{"source": "patent US20260085338", "key": {"[1]": {"system": "Pf-10 RNA polymerase"}, "[2]": {"system": "phi15 RNA polymerase"}, "[3]": {"system": "67PfluR64PP RNA polymerase"}, "[4]": {"system": "PPPL-1 RNA polymerase"}}}
{"substance": "Pf-10 lysozyme", "values": [{"measurement": "reduction of msfGFP output upon lysozyme induction (P. putida, 4 mM Rha)", "setting": "[1]", "value": "Pf-10 (-80%)"}]}
{"substance": "phi15 lysozyme (wild-type)", "values": [{"measurement": "reduction of msfGFP output upon lysozyme induction (P. putida, 4 mM Rha)", "setting": "[2]", "value": "The phi15 lysozyme caused only a -30% reduction of the msfGFP output"}]}
{"substance": "67PfluR64PP lysozyme", "values": [{"measurement": "reduction of msfGFP output upon lysozyme induction (P. putida, 4 mM Rha)", "setting": "[3]", "value": "67PfluR64PP (-51%)"}, {"measurement": "reduction of leaky msfGFP expression caused by the phi15 RNAP (P. putida, 4 mM Rha)", "setting": "[2]", "value": "The 67PfluR64PP lysozyme reduced the leaky expression by 58%"}]}
{"substance": "phi15 lysozyme (G3RQ)", "values": [{"measurement": "dynamic range of the system (fold induction), lysozyme integrated in PP4305, P. putida SEM11", "setting": "[2]", "value": "the dynamic range of the system increased from 33 to 107- and 70-fold, respectively"}, {"measurement": "dynamic range of the system (fold induction), lysozyme integrated in PP5388, P. putida SEM11", "setting": "[2]", "value": "the dynamic range of the system increased from 33 to 107- and 70-fold, respectively"}]}
{"substance": "PPPL-1 lysozyme", "values": [{"measurement": "reduction of msfGFP output upon lysozyme induction (P. putida, 4 mM Rha)", "setting": "[4]", "value": "PPPL-1 (-39%)"}]}
